The values that follow come from US20150344570A1 (published 2015).

The labels stand for the following.
B1: GpH7-B3 variant G236_02A/GpL16-k0 (antibody, human IgG1, kappa)
heavy: not shown
light: DIVMTQSPLSLPVTPGEPASISCQASESLVHSNRNTYLHWYLQKPGQSPQLLIYKVSNRFSGVPDRFSGSGSGTDFTLKISRVEAEDVGVYYCSQNTHVPPTFGQGTKVEIERTVAAPSVFIFPPSDEQLKSGTASVVCLLNNFYPREAKVQWKVDNALQSGNSQESVTEQDSKDSTYSLSSTLTLSKADYEKHKVYACEVTHQGLSSPVTKSFNRGEC
notes: also called Ho Ab G236_02A
B2: GpH7-B3 variant P238_06M/GpL16-k0 (antibody, human IgG1, kappa)
heavy: not shown
light: B1 light
notes: also called Ho Ab P238_06M
B3: GpH7-B3 variant H268_02A/GpL16-k0 (antibody, human IgG1, kappa)
heavy: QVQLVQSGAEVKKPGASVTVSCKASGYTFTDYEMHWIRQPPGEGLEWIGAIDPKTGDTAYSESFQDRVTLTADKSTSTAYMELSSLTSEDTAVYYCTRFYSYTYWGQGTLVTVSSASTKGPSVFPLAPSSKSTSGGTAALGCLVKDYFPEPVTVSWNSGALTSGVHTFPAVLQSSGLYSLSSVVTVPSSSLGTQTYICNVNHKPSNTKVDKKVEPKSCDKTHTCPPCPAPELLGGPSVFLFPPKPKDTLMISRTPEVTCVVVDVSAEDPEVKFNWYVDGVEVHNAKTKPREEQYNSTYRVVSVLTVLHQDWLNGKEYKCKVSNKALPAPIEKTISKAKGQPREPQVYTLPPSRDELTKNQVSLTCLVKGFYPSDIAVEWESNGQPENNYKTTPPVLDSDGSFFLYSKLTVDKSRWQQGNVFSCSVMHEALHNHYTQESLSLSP
light: B1 light
notes: also called Ho Ab H268_02A
B4: GpH7-B3 variant L234_15Y/GpL16-k0 (antibody, human IgG1, kappa)
heavy: not shown
light: B1 light
notes: also called Ho Ab L234_15Y
B5: GpH7-B3 variant L234_03V/GpL16-k0 (antibody, human IgG1, kappa)
heavy: not shown
light: B1 light
notes: also called Ho Ab L234_03V
B6: GpH7-B3 variant K326_12R/GpL16-k0 (antibody, human IgG1, kappa)
heavy: not shown
light: B1 light
notes: also called Ho Ab K326_12R
B7: GpH7-B3 variant I336_18N/GpL16-k0 (antibody, human IgG1, kappa)
heavy: not shown
light: B1 light
notes: also called Ho Ab I336_18N
B8: GpH7-B3 variant L328_03V/GpL16-k0 (antibody, human IgG1, kappa)
heavy: not shown
light: B1 light
notes: also called Ho Ab L328_03V
B9: GpH7-B3 variant I336_01G/GpL16-k0 (antibody, human IgG1, kappa)
heavy: not shown
light: B1 light
notes: also called Ho Ab I336_01G
B10: GpH7-B3 variant K326_15Y/GpL16-k0 (antibody, human IgG1, kappa)
heavy: not shown
light: B1 light
notes: also called Ho Ab K326_15Y
B11: GpH7-B3 variant H268_08L/GpL16-k0 (antibody, human IgG1, kappa)
heavy: not shown
light: B1 light
notes: also called Ho Ab H268_08L
B12: GpH7-B3 variant I336_03V/GpL16-k0 (antibody, human IgG1, kappa)
heavy: not shown
light: B1 light
notes: also called Ho Ab I336_03V
B13: GpH7-B3 variant I336_02A/GpL16-k0 (antibody, human IgG1, kappa)
heavy: not shown
light: B1 light
notes: also called Ho Ab I336_02A
B14: GpH7-B3 variant K326_14T/GpL16-k0 (antibody, human IgG1, kappa)
heavy: not shown
light: B1 light
notes: also called Ho Ab K326_14T
B15: GpH7-B3 variant H268_20W/GpL16-k0 (antibody, human IgG1, kappa)
heavy: not shown
light: B1 light
notes: also called Ho Ab H268_20W
B16: GpH7-B3 variant G236_20W/GpL16-k0 (antibody, human IgG1, kappa)
heavy: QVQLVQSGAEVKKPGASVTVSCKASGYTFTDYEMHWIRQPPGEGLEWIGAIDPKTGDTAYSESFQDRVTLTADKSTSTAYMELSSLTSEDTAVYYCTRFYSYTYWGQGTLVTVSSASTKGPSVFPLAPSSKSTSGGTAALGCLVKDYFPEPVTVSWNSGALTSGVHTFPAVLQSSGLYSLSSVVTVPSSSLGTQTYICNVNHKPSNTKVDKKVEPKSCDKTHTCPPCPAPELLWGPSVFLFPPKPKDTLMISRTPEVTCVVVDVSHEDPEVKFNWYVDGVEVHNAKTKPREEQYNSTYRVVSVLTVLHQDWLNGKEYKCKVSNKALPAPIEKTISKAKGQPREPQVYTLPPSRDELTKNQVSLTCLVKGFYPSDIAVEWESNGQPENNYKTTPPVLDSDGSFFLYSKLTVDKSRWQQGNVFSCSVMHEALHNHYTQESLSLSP
light: B1 light
notes: also called Ho Ab G236_20W
B17: GpH7-B3 variant K334_12R/GpL16-k0 (antibody, human IgG1, kappa)
heavy: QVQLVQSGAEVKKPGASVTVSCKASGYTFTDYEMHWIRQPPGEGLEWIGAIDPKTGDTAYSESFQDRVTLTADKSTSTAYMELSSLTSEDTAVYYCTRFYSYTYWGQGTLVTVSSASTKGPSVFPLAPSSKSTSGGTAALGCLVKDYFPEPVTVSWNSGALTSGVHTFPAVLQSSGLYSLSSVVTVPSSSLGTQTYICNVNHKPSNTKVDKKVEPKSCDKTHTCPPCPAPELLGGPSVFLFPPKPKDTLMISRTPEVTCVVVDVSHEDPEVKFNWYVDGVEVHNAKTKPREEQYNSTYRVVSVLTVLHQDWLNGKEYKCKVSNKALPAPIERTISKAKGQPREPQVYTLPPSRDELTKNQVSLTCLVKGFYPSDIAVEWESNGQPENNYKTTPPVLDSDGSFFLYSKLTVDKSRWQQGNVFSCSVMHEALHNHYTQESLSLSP
light: B1 light
notes: also called Ho Ab K334_12R
B18: GpH7-B3 variant L234_06M/GpL16-k0 (antibody, human IgG1, kappa)
heavy: not shown
light: B1 light
notes: also called Ho Ab L234_06M
B19: GpH7-B3 variant L234_04F/GpL16-k0 (antibody, human IgG1, kappa)
heavy: not shown
light: B1 light
notes: also called Ho Ab L234_04F
B20: GpH7-B3 variant H268_14T/GpL16-k0 (antibody, human IgG1, kappa)
heavy: not shown
light: B1 light
notes: also called Ho Ab H268_14T
B21: GpH7-B3 variant K326_18N/GpL16-k0 (antibody, human IgG1, kappa)
heavy: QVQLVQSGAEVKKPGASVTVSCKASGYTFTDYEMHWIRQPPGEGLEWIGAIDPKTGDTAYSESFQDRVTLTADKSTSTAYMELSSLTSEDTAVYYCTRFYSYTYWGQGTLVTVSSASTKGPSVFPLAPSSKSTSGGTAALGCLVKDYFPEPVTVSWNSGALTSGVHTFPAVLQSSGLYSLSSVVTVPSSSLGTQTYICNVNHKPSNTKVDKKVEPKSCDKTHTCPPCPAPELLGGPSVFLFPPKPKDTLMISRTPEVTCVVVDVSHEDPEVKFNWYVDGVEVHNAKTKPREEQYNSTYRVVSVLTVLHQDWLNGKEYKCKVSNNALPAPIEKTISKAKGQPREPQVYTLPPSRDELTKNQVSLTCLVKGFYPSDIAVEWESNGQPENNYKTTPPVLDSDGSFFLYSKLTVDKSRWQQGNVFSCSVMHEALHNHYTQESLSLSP
light: B1 light
notes: also called Ho Ab K326_18N
B22: GpH7-B3 variant K334_06M/GpL16-k0 (antibody, human IgG1, kappa)
heavy: not shown
light: B1 light
notes: also called Ho Ab K334_06M
B23: GpH7-B3 variant K326_16H/GpL16-k0 (antibody, human IgG1, kappa)
heavy: not shown
light: B1 light
notes: also called Ho Ab K326_16H
B24: GpH7-B3 variant H268_05P/GpL16-k0 (antibody, human IgG1, kappa)
heavy: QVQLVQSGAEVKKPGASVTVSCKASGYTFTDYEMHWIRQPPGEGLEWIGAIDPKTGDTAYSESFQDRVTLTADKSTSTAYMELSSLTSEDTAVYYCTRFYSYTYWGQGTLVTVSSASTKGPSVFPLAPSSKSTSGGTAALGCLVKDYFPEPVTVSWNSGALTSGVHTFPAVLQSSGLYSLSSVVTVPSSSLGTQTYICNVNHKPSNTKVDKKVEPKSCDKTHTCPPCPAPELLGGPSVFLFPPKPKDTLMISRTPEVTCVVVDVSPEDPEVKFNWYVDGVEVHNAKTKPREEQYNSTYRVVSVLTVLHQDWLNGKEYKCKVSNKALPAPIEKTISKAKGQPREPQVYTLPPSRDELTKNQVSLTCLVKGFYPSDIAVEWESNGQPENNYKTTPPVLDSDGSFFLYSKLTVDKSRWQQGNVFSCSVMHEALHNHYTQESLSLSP
light: B1 light
notes: also called Ho Ab H268_05P
B25: GpH7-B3 variant P238_04F/GpL16-k0 (antibody, human IgG1, kappa)
heavy: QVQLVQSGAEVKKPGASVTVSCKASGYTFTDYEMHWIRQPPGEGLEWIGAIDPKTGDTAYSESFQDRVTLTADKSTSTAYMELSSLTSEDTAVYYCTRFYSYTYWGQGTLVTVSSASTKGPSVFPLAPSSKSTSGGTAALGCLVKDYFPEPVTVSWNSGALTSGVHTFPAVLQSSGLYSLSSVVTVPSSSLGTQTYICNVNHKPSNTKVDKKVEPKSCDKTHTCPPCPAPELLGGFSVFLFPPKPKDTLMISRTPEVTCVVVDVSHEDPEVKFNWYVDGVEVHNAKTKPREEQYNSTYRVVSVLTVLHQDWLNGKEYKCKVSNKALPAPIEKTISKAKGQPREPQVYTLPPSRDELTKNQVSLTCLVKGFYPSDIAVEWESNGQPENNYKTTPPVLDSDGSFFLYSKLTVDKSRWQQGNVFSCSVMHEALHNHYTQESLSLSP
light: B1 light
notes: also called Ho Ab P238_04F
B26: GpH7-B3 variant I332_12R/GpL16-k0 (antibody, human IgG1, kappa)
heavy: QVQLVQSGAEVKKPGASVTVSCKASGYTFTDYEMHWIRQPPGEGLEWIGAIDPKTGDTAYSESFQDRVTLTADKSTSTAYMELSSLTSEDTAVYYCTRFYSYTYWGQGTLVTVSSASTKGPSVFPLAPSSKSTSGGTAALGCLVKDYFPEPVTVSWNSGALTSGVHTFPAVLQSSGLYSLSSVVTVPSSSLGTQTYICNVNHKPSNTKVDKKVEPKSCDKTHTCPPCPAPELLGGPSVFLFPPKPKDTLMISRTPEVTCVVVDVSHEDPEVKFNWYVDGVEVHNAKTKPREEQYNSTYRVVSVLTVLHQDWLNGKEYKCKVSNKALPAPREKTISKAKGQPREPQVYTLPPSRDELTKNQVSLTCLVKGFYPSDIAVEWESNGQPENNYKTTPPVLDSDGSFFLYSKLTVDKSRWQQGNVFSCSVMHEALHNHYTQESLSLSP
light: B1 light
notes: also called Ho Ab I332_12R
B27: GpH7-B3 variant I336_06M/GpL16-k0 (antibody, human IgG1, kappa)
heavy: not shown
light: B1 light
notes: also called Ho Ab I336_06M
B28: GpH7-B3 variant H268_12R/GpL16-k0 (antibody, human IgG1, kappa)
heavy: not shown
light: B1 light
notes: also called Ho Ab H268_12R
B29: GpH7-B3 variant I336_10E/GpL16-k0 (antibody, human IgG1, kappa)
heavy: not shown
light: B1 light
notes: also called Ho Ab I336_10E
B30: GpH7-B3 variant H268_07I/GpL16-k0 (antibody, human IgG1, kappa)
heavy: not shown
light: B1 light
notes: also called Ho Ab H268_07I
B31: GpH7-B3 variant K334_10E/GpL16-k0 (antibody, human IgG1, kappa)
heavy: not shown
light: B1 light
notes: also called Ho Ab K334_10E
B32: GpH7-B3 variant L328_19Q/GpL16-k0 (antibody, human IgG1, kappa)
heavy: not shown
light: B1 light
notes: also called Ho Ab L328_19Q
B33: GpH7-B3 variant L328_10E/GpL16-k0 (antibody, human IgG1, kappa)
heavy: not shown
light: B1 light
notes: also called Ho Ab L328_10E
B34: GpH7-B3 variant L234_07I/GpL16-k0 (antibody, human IgG1, kappa)
heavy: not shown
light: B1 light
notes: also called Ho Ab L234_07I
B35: GpH7-B3 variant P238_03V/GpL16-k0 (antibody, human IgG1, kappa)
heavy: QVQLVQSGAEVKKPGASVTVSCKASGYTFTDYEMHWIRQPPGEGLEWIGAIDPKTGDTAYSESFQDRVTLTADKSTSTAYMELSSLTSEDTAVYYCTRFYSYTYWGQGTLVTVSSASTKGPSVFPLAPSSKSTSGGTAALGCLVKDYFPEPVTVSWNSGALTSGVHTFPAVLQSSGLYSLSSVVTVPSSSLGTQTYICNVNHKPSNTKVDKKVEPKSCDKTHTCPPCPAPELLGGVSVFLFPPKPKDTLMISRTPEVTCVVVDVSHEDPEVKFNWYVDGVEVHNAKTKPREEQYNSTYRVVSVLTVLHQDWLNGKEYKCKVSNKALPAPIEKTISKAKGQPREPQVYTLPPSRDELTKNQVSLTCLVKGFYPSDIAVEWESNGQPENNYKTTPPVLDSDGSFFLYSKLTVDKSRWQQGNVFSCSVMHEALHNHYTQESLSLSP
light: B1 light
notes: also called Ho Ab P238_03V
B36: GpH7-B3 variant I336_04F/GpL16-k0 (antibody, human IgG1, kappa)
heavy: not shown
light: B1 light
notes: also called Ho Ab I336_04F
B37: GpH7-B3 variant L234_10E/GpL16-k0 (antibody, human IgG1, kappa)
heavy: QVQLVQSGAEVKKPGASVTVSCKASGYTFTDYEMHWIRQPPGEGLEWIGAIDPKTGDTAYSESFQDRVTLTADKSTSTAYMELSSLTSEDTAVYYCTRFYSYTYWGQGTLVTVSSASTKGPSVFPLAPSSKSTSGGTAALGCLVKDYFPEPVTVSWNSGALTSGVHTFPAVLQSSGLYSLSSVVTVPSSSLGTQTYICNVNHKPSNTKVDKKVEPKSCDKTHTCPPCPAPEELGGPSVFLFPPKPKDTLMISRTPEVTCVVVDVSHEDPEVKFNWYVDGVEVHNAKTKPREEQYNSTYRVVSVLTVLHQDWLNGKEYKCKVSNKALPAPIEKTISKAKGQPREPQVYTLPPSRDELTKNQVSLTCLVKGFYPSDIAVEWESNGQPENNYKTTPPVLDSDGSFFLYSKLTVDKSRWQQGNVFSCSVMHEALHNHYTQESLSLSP
light: B1 light
notes: also called Ho Ab L234_10E
B38: GpH7-B3 variant L328_20W/GpL16-k0 (antibody, human IgG1, kappa)
heavy: not shown
light: B1 light
notes: also called Ho Ab L328_20W
B39: GpH7-B3 variant L328_14T/GpL16-k0 (antibody, human IgG1, kappa)
heavy: not shown
light: B1 light
notes: also called Ho Ab L328_14T
B40: GpH7-B3 variant K334_20W/GpL16-k0 (antibody, human IgG1, kappa)
heavy: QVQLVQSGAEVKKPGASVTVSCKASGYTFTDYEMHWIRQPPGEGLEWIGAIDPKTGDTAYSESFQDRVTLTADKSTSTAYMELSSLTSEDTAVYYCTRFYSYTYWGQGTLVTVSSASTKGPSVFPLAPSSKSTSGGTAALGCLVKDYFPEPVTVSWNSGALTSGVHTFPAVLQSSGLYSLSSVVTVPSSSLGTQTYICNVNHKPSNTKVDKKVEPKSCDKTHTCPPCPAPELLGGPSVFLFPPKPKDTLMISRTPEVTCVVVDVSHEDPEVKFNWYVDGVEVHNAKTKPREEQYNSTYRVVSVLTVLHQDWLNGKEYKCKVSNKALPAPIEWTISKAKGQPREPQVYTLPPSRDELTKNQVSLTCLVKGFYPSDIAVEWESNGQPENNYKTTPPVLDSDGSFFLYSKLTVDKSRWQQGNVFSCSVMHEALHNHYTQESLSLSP
light: B1 light
notes: also called Ho Ab K334_20W

The assay deals with T1, FcγRIa (human, UniProt P12314 16-292).
T1 construct: extracellular domain; also called FcgRI; 1a
T1 sequence (P12314 16-292): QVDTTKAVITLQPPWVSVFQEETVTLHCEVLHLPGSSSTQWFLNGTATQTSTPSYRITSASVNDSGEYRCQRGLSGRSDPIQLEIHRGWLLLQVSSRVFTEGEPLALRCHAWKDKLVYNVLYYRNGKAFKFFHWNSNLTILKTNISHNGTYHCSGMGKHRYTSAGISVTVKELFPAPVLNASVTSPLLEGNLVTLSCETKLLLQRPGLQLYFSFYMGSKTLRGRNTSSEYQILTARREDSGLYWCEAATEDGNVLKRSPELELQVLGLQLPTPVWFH
As to the kind of experiment: SPR (Biacore); Ho Ab relative to HoCon Ab = 100. The procedure: Analysis of interaction between objective antibody and the FcγR was carried out using Biacore T100 (GE Healthcare). HBS-EP+ (GE Healthcare) was used as the running buffer, and the measurement temperature was set to 25° C. Chips produced by immobilizing the antigen peptide by the amine coupling method to a Series S Sencor Chip CM5 (GE Healthcare), or alternatively, chips produced by allowing preliminarily biotinylated antigen peptides to interact with and immobilize onto a Series S Sensor Chip SA (certified) (GE Healthcare) were used. Antibodies of interest were captured onto an antigen peptide-immobilized chip, and allowed to interact to each FcγR diluted with running buffer. To regenerate and repeatedly use the chip, the antibodies captured on the chip were washed off by reacting 10 mM glycine-HCl, pH 1.5.
For B1, the Ho/Con_1a was 92.4 % of control.
Consider B2, for which the Ho/Con_1a was 100 % of control.
Then B3, with 106 % of control.
Regarding B4, the Ho/Con_1a was 98.9 % of control.
On to B5, for which the Ho/Con_1a is 98.2 % of control.
Then B6, with 100 % of control.
As to B7, the Ho/Con_1a was 104 % of control.
For B8, the Ho/Con_1a is 99.2 % of control.
With B9 the figure was 104 % of control; with B10, 101 % of control; with B11, 105 % of control.
For the molecule B12, the Ho/Con_1a was 105 % of control.
For the molecule B13, the Ho/Con_1a is 103 % of control.
For B14, the Ho/Con_1a is 103 % of control.
Consider B15, for which the Ho/Con_1a was 106 % of control.
B16: the Ho/Con_1a is 104 % of control.
B17: the Ho/Con_1a is 102 % of control.
With B18, the Ho/Con_1a was 96.5 % of control.
In the case of B19, the Ho/Con_1a is 93.5 % of control.
Then B20, with 109 % of control.
Then B21, with 102 % of control; and B22, with 104 % of control.
In the case of B23, the Ho/Con_1a is 101 % of control.
With B24 the figure was 108 % of control; with B25, 98.7 % of control.
As to B26, the Ho/Con_1a is 93.2 % of control.
Take B27: the Ho/Con_1a was 104 % of control.
For B28, the Ho/Con_1a was 105 % of control.
With B29 the figure was 107 % of control; with B30, 106 % of control; with B31, 107 % of control.
As to B32, the Ho/Con_1a is 99.3 % of control.
Regarding B33, the Ho/Con_1a is 101 % of control.
With B34 the figure was 99.5 % of control; with B35, 97.9 % of control.
For the molecule B36, the Ho/Con_1a was 104 % of control.
With B37 the figure was 79.6 % of control.
As for B38, the Ho/Con_1a was 99.9 % of control.
Regarding B39, the Ho/Con_1a was 98.6 % of control.
Then B40, with 104 % of control.
